Measured values from patent US20250270331A1 (MERUS N V, published 2025).
Residue numbers refer to the chain shown, from its start. Values belong to the binder of their own block, whether it stands above or below them.

Key:
[1] = target: T1, Human TGF-βRII-Fc (R&D; cat. no. 341-BR) (human, UniProt P37173 23-159); test: ligand blocking ELISA: TGF-βRII-Fc on coated TGF-β1, antibody titrated (OD450)
T1 construct: Bought construct; not shown: Fc part of the bought fusion

[2] = target: T1, Human TGF-βRII-Fc (R&D; cat. no. 341-BR); test: ELISA; blocking of TGF-βRII-Fc binding to coated TGF-β1
I54A = target: T2, I54A; test: shotgun mutagenesis alanine scan, mean fluorescence of the mutant clone in % of wildtype
T2 construct: also called human TGF-βRII with I54A (alanine scan clone)
T2 receptor: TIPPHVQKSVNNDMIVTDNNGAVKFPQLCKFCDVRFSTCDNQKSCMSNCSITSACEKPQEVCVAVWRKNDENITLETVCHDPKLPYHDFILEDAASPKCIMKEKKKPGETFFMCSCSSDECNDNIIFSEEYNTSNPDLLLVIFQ

E120A = target: T3, E120A; test: as above
T3 construct: also called human TGF-βRII with E120A (alanine scan clone)
T3 receptor: T2 receptor with A54I, E120A

F25A = target: T4, F25A; test: as above
T4 construct: also called human TGF-βRII with F25A (alanine scan clone)
T4 receptor: T2 receptor with F25A, A54I

L28A = target: T5, L28A; test: as above
T5 construct: L28 is named only on the sheet; also called human TGF-βRII with L28A (alanine scan clone)
T5 receptor: T2 receptor with L28A, A54I

D119A = target: T6, D119A; test: as above
T6 construct: also called human TGF-βRII with D119A (alanine scan clone)
T6 receptor: T2 receptor with A54I, D119A

T52A = target: T7, T52A; test: as above
T7 construct: also called human TGF-βRII with T52A (alanine scan clone)
T7 receptor: T2 receptor with T52A, A54I

IC50 (read off the curve) [1]: ~0.03 µg/mL
B1: antibody comprising heavy chain variable regions having SEQ ID NO: 94 (antibody, V domains shown)
VH: EVQLVESGGGLVQPGGSLRLSCAASGFTFSRYAMSWVRQAPGKGLEWVSSINTSGGNTFYADSVKGRFTISRDNSKNTLYLQMNSLRAEDTAIYYCAKGIAATGKNYFDPWGQGTLVTVSS
VL: not shown
notes: IgG expressed in 293T freestyle cells

IC50 [2]: 0.155 µg/mL
B2: antibody comprising heavy chain variable regions having SEQ ID NO: 93 (antibody, V domains shown)
VH: EVQLVESGGDLVKPGGSLRLSCAASGFTFSNAWMSWVRQAPGKGLEWVGRVKTTVSGGTTDYAAAVKGRFTISRDDSKNTLYLQMNSLKTEDTAIYYCTIDLRDYWGQGTLVTVSS
VL: not shown
notes: From the second round of immunization; tested as bivalent IgG
Binding Reactivity (% WT) (I54A): 24 % WT | Binding Reactivity (% WT) (E120A): 91.5 % WT | Binding Reactivity (% WT) (F25A): 2.28 % WT | Binding Reactivity (% WT) (L28A): 22.8 % WT | Binding Reactivity (% WT) (D119A): 2.8 % WT | Binding Reactivity (% WT) (T52A): 23.4 % WT
